Measured values from publication PMC11681868, “Unveiling the structural mechanisms behind high affinity and selectivity in phosphorylated epitope-specific rabbit antibodies” (The Journal of Biological Chemistry, 2024).

Biological target: T1, Akt peptide (synthetic peptide; letters match human …)
T1 construct: Akt peptide around 473-Ser, not phosphorylated; also called non-phosphorylated antigen; non-phosphorylated peptide; source: synthetic peptide (SCRUM Inc.)
T1 chain: RPHFPQFSYSAS
Assay: ITC; iTC200; 5 μM scFv in the cell, 50 μM peptide in the syringe; samples dialyzed against PBS; triplicate
Conditions: both partners purified

- Kd: 1.12 µM
B1: rabbit antibody A4 scFv (wild type) (scFv, V domains shown)
VH: QEQLMESGGRLVTPGTPLTLTCTASGSDISTYSISWVRQAPGKGLEWIGHIGSSGTQYYASWAKGRFAISRASTTVDLRITGPTTEDTATYFCARRGVGYNLYYNMWGPGTLVTVSL
VL: AIDMTQTPSPVSAAVGGTVTINCQASQSVYNSKNLAWYQQKPGQPPKLLIYDSSTLASGVSSRFRGSGSGTQFTLTISGVQSDDAATYYCQGEFSCSSGDCAGFGGGTEVVVE
notes: VH of rabbit antibody A4; they are in PDB 8JOW (A4 scFv); GS linker of the scFv; PDB 8JOW may hold them; VL (kappa) of rabbit antibody A4; they are in PDB 8JOW; the deposited construct should already hold Ser at L80 (Chothia); Antibody numbering is Chothia; also called A4 WT; source: E. coli BL21(DE3), purified (Ni-NTA, SEC)
